# Measurements reported in patent US20150337049A1 (Genmab, published 2015).
# Numbering of substitutions follows the chain as printed. Names and notes keep the numbering of the source.
# B1: bsIgG1-CD3×HER2 (IgG1-huCLB-T3/4×HER2-169), wild-type Fc (bispecific antibody)
# heavy 1: not shown
# VL 1: EIVLTQSPATLSLSPGERATLSCSASSSVTYVHWYQQKPGQAPRLLIYDTSKLASGIPARFSGSGSGTDFTLTISSLEPEDFAVYYCFQGSGYPLTFGSGTKLEMR
# heavy 2: not shown
# VL 2: EIVLTQSPATLSLSPGERATLSCRASQSVSSYLAWYQQKPGQAPRLLIYDASNRATGIPARFSGSGSGTDFTLTISSLEPEDFAVYYCQQRSNWPRTFGQGTKVEIK
# notes: also called bispecific IgG1-CD3×HER2; (bs)IgG-CD3×HER2
# B2: IgG1-CD3-DAPS (IgG1-huCLB-T3/4-F405L with D265A/P331S) (antibody)
# heavy: EVQLVESGGGLVKPGGSLRLSCAASGFTFSSYGMFWVRQAPGKGLEWVATISRYSRYIYYPDSVKGRFTISRDNAKNSLYLQMNSLRAEDTAVYYCARRPLYGSSPDYWGQGTLVTVSSASTKGPSVFPLAPSSKSTSGGTAALGCLVKDYFPEPVTVSWNSGALTSGVHTFPAVLQSSGLYSLSSVVTVPSSSLGTQTYICNVNHKPSNTKVDKRVEPKSCDKTHTCPPCPAPELLGGPSVFLFPPKPKDTLMISRTPEVTCVVVAVSHEDPEVKFNWYVDGVEVHNAKTKPREEQYNSTYRVVSVLTVLHQDWLNGKEYKCKVSNKALPASIEKTISKAKGQPREPQVYTLPPSREEMTKNQVSLTCLVKGFYPSDIAVEWESNGQPENNYKTTPPVLDSDGSFLLYSKLTVDKSRWQQGNVFSCSVMHEALHNHYTQKSLSLSPGK
# VL: B1 VL 1
# notes: IgG1, F405L
# B3: IgG1-CD3-LFLENQ (IgG1-huCLB-T3/4-F405L with L234F/L235E/N297Q) (antibody)
# heavy: B2 heavy with L236F, L237E, A267D, N299Q, S333P
# VL: B1 VL 1
# notes: IgG1, F405L
# B4: IgG1-CD3-LFLEDA (IgG1-huCLB-T3/4-F405L with L234F/L235E/D265A) (antibody, name in EU numbering)
# heavy: B2 heavy with L236F, L237E, S333P
# VL: B1 VL 1
# notes: IgG1, F405L
# B5: IgG1-CD3-LFLEPS (IgG1-huCLB-T3/4-F405L with L234F/L235E/P331S) (antibody)
# heavy: B2 heavy with L236F, L237E, A267D
# VL: B1 VL 1
# notes: IgG1, F405L
# B6: bsIgG1-CD3×HER2-DANQ (IgG1-huCLB-T3/4×HER2-169 with D265A/N297Q) (bispecific antibody)
# heavy 1: B2 heavy with N299Q, S333P
# VL 1: B1 VL 1
# heavy 2: QVQLVQSGAEVKKPGASVKVSCKASGYTFTNYGISWVRQAPGQGLEWMGWLSAYSGNTIYAQKLQGRVTMTTDTSTTTAYMELRSLRSDDTAVYYCARDRIVVRPDYFDYWGQGTLVTVSSASTKGPSVFPLAPSSKSTSGGTAALGCLVKDYFPEPVTVSWNSGALTSGVHTFPAVLQSSGLYSLSSVVTVPSSSLGTQTYICNVNHKPSNTKVDKRVEPKSCDKTHTCPPCPAPELLGGPSVFLFPPKPKDTLMISRTPEVTCVVVAVSHEDPEVKFNWYVDGVEVHNAKTKPREEQYQSTYRVVSVLTVLHQDWLNGKEYKCKVSNKALPAPIEKTISKAKGQPREPQVYTLPPSREEMTKNQVSLTCLVKGFYPSDIAVEWESNGQPENNYKTTPPVLDSDGSFFLYSRLTVDKSRWQQGNVFSCSVMHEALHNHYTQKSLSLSPGK
# VL 2: B1 VL 2
# B7: IgG1-CD3-DANQ (IgG1-huCLB-T3/4-F405L with D265A/N297Q) (antibody)
# heavy: B2 heavy with N299Q, S333P
# VL: B1 VL 1
# notes: IgG1, F405L
# B8: IgG1-CD3-LFLE (IgG1-huCLB-T3/4-F405L with L234F/L235E) (antibody)
# heavy: B2 heavy with L236F, L237E, A267D, S333P
# VL: B1 VL 1
# notes: IgG1, F405L
# B9: bsIgG1-CD3×HER2-LFLE (IgG1-huCLB-T3/4×HER2-169 with L234F/L235E) (bispecific antibody)
# heavy 1: B2 heavy with L236F, L237E, A267D, S333P
# VL 1: B1 VL 1
# heavy 2: B6 heavy 2 with L238F, L239E, A269D, Q301N
# VL 2: B1 VL 2
# B10: IgG1-CD3-LALA (IgG1-huCLB-T3/4-F405L with L234A/L235A) (antibody)
# heavy: B2 heavy with L236A, L237A, A267D, S333P
# VL: B1 VL 1
# notes: IgG1, F405L
# B11: bsIgG1-CD3×HER2-DA (IgG1-huCLB-T3/4×HER2-169 with D265A) (bispecific antibody)
# heavy 1: not shown
# VL 1: B1 VL 1
# heavy 2: not shown
# VL 2: B1 VL 2
# B12: bsIgG1-CD3×HER2-LFLEDA (IgG1-huCLB-T3/4×HER2-169 with L234F/L235E/D265A) (bispecific antibody)
# heavy 1: B2 heavy with L236F, L237E, S333P
# VL 1: B1 VL 1
# heavy 2: B6 heavy 2 with L238F, L239E, Q301N
# VL 2: B1 VL 2
# notes: also called huCLB-T3/4×HER2-LFLEDA; copies: 1 + 1 + 1 + 1
# B13: bsIgG1-CD3×HER2-N297Q (IgG1-huCLB-T3/4×HER2-169 with N297Q) (bispecific antibody)
# heavy 1: not shown
# VL 1: B1 VL 1
# heavy 2: not shown
# VL 2: B1 VL 2
# notes: also called NQ
# B14: IgG1-CD3-DA (IgG1-huCLB-T3/4-F405L with D265A) (antibody)
# heavy: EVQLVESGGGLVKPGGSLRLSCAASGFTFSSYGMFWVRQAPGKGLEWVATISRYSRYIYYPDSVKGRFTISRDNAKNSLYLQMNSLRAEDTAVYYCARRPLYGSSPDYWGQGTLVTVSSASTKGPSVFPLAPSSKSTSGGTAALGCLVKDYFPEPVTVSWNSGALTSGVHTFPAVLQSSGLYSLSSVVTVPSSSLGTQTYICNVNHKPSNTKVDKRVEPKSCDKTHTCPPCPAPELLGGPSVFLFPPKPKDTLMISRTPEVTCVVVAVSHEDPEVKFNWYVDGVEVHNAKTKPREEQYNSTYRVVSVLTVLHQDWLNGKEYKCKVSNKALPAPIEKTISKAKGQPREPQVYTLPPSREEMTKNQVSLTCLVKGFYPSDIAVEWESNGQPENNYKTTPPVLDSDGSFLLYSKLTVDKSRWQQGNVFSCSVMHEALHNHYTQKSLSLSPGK
# VL: B1 VL 1
# notes: IgG1, F405L
# B15: IgG1-CD3-N297Q (IgG1-huCLB-T3/4-F405L with N297Q) (antibody)
# heavy: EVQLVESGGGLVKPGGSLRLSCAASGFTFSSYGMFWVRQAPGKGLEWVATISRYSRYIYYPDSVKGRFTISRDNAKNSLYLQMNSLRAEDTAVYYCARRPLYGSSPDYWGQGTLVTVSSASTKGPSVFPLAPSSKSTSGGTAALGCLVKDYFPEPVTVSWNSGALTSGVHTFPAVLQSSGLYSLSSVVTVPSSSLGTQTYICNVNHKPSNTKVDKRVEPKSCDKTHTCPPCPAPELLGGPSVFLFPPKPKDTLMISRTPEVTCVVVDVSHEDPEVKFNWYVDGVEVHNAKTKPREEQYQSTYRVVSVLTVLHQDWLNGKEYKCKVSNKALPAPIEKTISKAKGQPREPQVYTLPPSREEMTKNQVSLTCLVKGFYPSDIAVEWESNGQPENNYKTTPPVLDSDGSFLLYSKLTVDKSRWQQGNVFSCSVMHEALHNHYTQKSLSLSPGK
# VL: B1 VL 1
# notes: IgG1, F405L; also called NQ
# B16: bsIgG1-CD3×HER2-DAPS (IgG1-huCLB-T3/4×HER2-169 with D265A/P331S) (bispecific antibody)
# heavy 1: B2 heavy
# VL 1: B1 VL 1
# heavy 2: B6 heavy 2 with Q301N, P335S
# VL 2: B1 VL 2
# B17: bsIgG1-CD3×HER2-LALA (IgG1-huCLB-T3/4×HER2-169 with L234A/L235A) (bispecific antibody)
# heavy 1: B2 heavy with L236A, L237A, A267D, S333P
# VL 1: B1 VL 1
# heavy 2: B6 heavy 2 with L238A, L239A, A269D, Q301N
# VL 2: B1 VL 2
# B18: bsIgG1-CD3×HER2-LFLEPS (IgG1-huCLB-T3/4×HER2-169 with L234F/L235E/P331S) (bispecific antibody)
# heavy 1: B2 heavy with L236F, L237E, A267D
# VL 1: B1 VL 1
# heavy 2: B6 heavy 2 with L238F, L239E, A269D, Q301N, P335S
# VL 2: B1 VL 2
# B19: IgG1-CD3-… (IgG1-huCLB-T3/4-F405L with L234F/L235E/D265A/N297Q/P331S) (antibody)
# heavy: B2 heavy with L236F, L237E, N299Q
# VL: B1 VL 1
# notes: IgG1, F405L
# B20: bsIgG1-CD3×HER2-LFLENQ (IgG1-huCLB-T3/4×HER2-169 with L234F/L235E/N297Q) (bispecific antibody)
# heavy 1: B2 heavy with L236F, L237E, A267D, N299Q, S333P
# VL 1: B1 VL 1
# heavy 2: B6 heavy 2 with L238F, L239E, A269D
# VL 2: B1 VL 2
# Biological target: T1, C1q (from 3% pooled human serum) (human, UniProt P02745 23-245; P02746 28-253; P02747 29-245)
# T1 construct: Native C1q of pooled human serum, detected with rabbit anti-human C1q
# Test: ELISA, antibody coated, 3% pooled human serum, anti-C1q detection
# Method: Plates were washed and blocked with PBS supplemented with 0.025% Tween 20 and 0.1% gelatine. […] Detection was performed by addition of 1 mg/mL 2,2′-azino-bis(3-ethylbenzothiazoline-6-sulfonic acid) (ABTS; Roche, Mannheim, Germany) for about 30 min. The reaction was stopped by the addition of 100 μL 2% oxalic acid. Absorbance was measured at 405 nm in a microplate reader (Biotek, Winooski, Vt.). Log transformed data were analyzed by fitting sigmoidal dose-response curves with variable slope using GraphPad Prism software.
row,Binder,binding result
1,B1,binds
2,B2,no binding (tested: coated at 7-30000 ng/mL)
3,B3,no binding (tested: coated at 7-30000 ng/mL)
4,B4,no binding (tested: coated at 7-30000 ng/mL)
5,B5,no binding (tested: coated at 7-30000 ng/mL)
6,B6,no binding (tested: coated at 7-30000 ng/mL)
7,B7,no binding (tested: coated at 7-30000 ng/mL)
8,B8,no binding (tested: coated at 7-30000 ng/mL)
9,B9,no binding (tested: coated at 7-30000 ng/mL)
10,B10,no binding (tested: coated at 7-30000 ng/mL)
11,B11,no binding (tested: coated at 7-30000 ng/mL)
12,B12,no binding (tested: coated at 7-30000 ng/mL)
13,B13,no binding (tested: coated at 7-30000 ng/mL)
14,B14,no binding (tested: coated at 7-30000 ng/mL)
15,B15,no binding (tested: coated at 7-30000 ng/mL)
16,B16,no binding (tested: coated at 7-30000 ng/mL)
17,B17,no binding (tested: coated at 7-30000 ng/mL)
18,B18,no binding (tested: coated at 7-30000 ng/mL)
19,B19,no binding (tested: coated at 7-30000 ng/mL)
20,B20,no binding (tested: coated at 7-30000 ng/mL)

# Biological target: T2, HER2 on HER2-positive AU565 cells (human, UniProt P04626 23-1255)
# T2 construct: whole, on cells
# Test: FACS, AU565 cells
# Method: Cells (1×10^5 cells/well) were incubated in polystyrene 96-well round-bottom plates (Greiner bio-one 650101) with serial dilutions of antibody preparations (range 2 to 10000 ng/mL in 4-fold dilutions for Jurkat cells and range 1 to 3000 ng/mL in 4-fold dilutions for on AU565 cells) in 100 μL PBS/0.1% BSA/0.02% azide at 4° C. for 30 min.
# After washing twice in PBS/0.1% BSA/0.02% azide, cells were incubated in 100 μL with secondary antibody at 4° C. for 30 min. As a secondary antibody, R-Phycoerythrin (PE)-conjugated goat-anti-human IgG F(ab′)₂ (109-116-098, Jackson ImmunoResearch Laboratories, Inc., West Grove, Pa.) diluted 1/100 in PBS/0.1% BSA/0.02% azide, was used for all experiments. Next, cells were washed twice in PBS/0.1% BSA/0.02% azide, resuspended in 150 μL PBS/0.1% BSA/0.02% azide and analyzed on a FACS CantoII (BD Biosciences). Binding curves were analyzed using non-linear regression (sigmoidal dose-response with variable slope) using GraphPad Prism V5.04 software (GraphPad Software, San Diego, Calif., USA).
row,Binder,binding result
1,B1,binds
2,B6,binds
3,B9,binds
4,B11,binds
5,B12,binds
6,B13,binds
7,B16,binds
8,B17,binds
9,B18,binds
10,B20,binds
